B1: mSNX1FL: recombinant full-length mouse SNX1 with an amino-terminal His-tag (protein)
chain: MASGGGGCSASERLPPPFPGMDPESEGAAGASEPEAGDSDTEGEDIFTGAAAATKPQSPKKTTSLFPIKNGSKENGIHEDQDQEPQDLFADATVELSLDSTQNNQKTMPGKTLTSHSPQEATNSPKPQPSYEELEEEEQEDQFDLTVGITDPEKIGDGMNAYVAYKVTTQTSLPMFRSRQFAVKRRFSDFLGLYEKLSEKHSQNGFIVPPPPEKSLIGMTKVKVGKEDSSSAEFLEKRRAALERYLQRIVNHPTMLQDPDVREFLEKEELPRAVGTQALSGAGLLKMFNKATDAVSKMTIKMNESDIWFEEKLQEVECEEQRLRKLHAVVETLVNHRKELALNTALFAKSLAMLGSSEDNTALSRALSQLAEVEEKIEQLHQEQANNDSFLLAELLSDYIRLLAIVRAAFDQRMKTWQRWQDAQATLQKKRESEARLLWANKPDKLQQAKDEITEWESRVTQYERDFERISTVVRKEVTRFEKEKSKDFKNHVMKYLETLLHSQQQLAKYWEAFLPEAKAIS
modifications: left off: His-tag, N-terminal, kept
B2: GFP-SNX2(D26K,D72K): mutant targeting both aDLF motifs in SNX2 (protein, UniProt O60749 1-519, looked up, variant D26K D72K)
Sorting nexin-2: MAAEREPPPLGDGKPTDFEDLEDGEKLFTSTVSTLESSPSSPEPASLPAEDISANSNGPKPTEVVLDDDREKLFAEATEEVSLDSPEREPILSSEPSPAVTPVTPTTLIAPRIESKSMSAPVIFDRSREEIEEEANGDIFDIEIGVSDPEKVGDGMNAYMAYRVTTKTSLSMFSKSEFSVKRRFSDFLGLHSKLASKYLHVGYIVPPAPEKSIVGMTKVKVGKEDSSSTEFVEKRRAALERYLQRTVKHPTLLQDPDLRQFLESSELPRAVNTQALSGAGILRMVNKAADAVNKMTIKMNESDAWFEEKQQQFENLDQQLRKLHVSVEALVCHRKELSANTAAFAKSAAMLGNSEDHTALSRALSQLAEVEEKIDQLHQEQAFADFYMFSELLSDYIRLIAAVKGVFDHRMKCWQKWEDAQITLLKKREAEAKMMVANKPDKIQQAKNEIREWEAKVQQGERDFEQISKTIRKEVGRFEKERVKDFKTVIIKYLESLVQTQQQLIKYWEAFLPEAKAIA
modifications: GFP tag
B3: mSNX1_1-139: recombinant truncated mSNX1 containing residues 1 to 139, GST fusion protein (protein)
chain: MASGGGGCSASERLPPPFPGMDPESEGAAGASEPEAGDSDTEGEDIFTGAAAATKPQSPKKTTSLFPIKNGSKENGIHEDQDQEPQDLFADATVELSLDSTQNNQKTMPGKTLTSHSPQEATNSPKPQPSYEELEEEEQ
modifications: left off: GST, N-terminal, kept
notes: recombinant truncated mSNX1 containing residues 1 to 139, GST fusion protein

How the values were obtained:
[1] = target: FERM domain of human SNX27 (hSNX27FERM); assay: ITC, hSNX27FERM titrated into mSNX1 proteins; type: binding; settings: 25°C
Description: Human SNX1 and SNX2 peptide sequences were synthesized by Genscript (USA). To obtain the peptide stock solutions at neutral pH, 100 mM Tris-HCl, pH 10.6 was used to dissolve the peptide to a final concentration of 8 mM. The peptides were SNX1_35-51 […], SNX135-51(D45K) […], SNX1_75-92 […], SNX2_16-33 […], SNX2_16-33(DLF/SSS) […], and SNX2_62-82 […].
All microcalorimetry experiments were conducted at 25°C using a PEAQ ITC (Malvern, UK) in 50 mM HEPES (pH 7.5), 200 mM NaCl, 5% glycerol, and 1 mM β-ME (ITC buffer). All proteins were purified by SEC using the same buffer prior to ITC experiments to avoid buffer mismatches. To measure binding of SNX27 to SNX1 proteins, 800 μM of hSNX27FERM was titrated into 20 μM of GST-mSNX1_1-139 or His-SNX1FL. For the binding of SNX1 and SNX2 peptides to SNX27, peptides were diluted 10-fold to 800 μM in ITC buffer peptides and titrated into 20 μM SNX27FL proteins containing the same 1:10 ratio of peptide buffer (100 mM Tris-HCl, pH 10.6). The competitive ITC experiments were carried out by titrating 800 μM SNX1_75-92 peptides into 20 μM proteins with 2-fold molar excess SNX2_16-33 peptide preincubated with SNX27 on ice for an hour. For ITC experiment using SNX1_75-92 against hSNX27 wild-type and single-site mutants, 600 μM SNX1_75-92 peptide was titrated into 20 μM hSNX27 proteins.
The ITC experiments were conducted with 1 injection of 0.4 μL followed by a series of 12 injections of 3.2 μL each with 180-second intervals and a stirring speed of 850 rpm. The heat exchange of interactions was obtained through integrating the observed peaks and background correction by subtracting the heats of dilution. Data were analyzed with Malvern software package by fitting and normalized data to a single-site binding model, yielding the thermodynamic parameters Kd, ΔH, ΔG, and −TΔS for all binding experiments. The stoichiometry was refined initially, and if the value was close to 1, then N was set to exactly 1.0 for calculation. All experiments were performed at least twice to guarantee reproducibility of the data.

[2] = tested on: SNX27; assay: GFP trap co-immunoprecipitation of GFP-SNX1/SNX2 constructs from HEK-293T, quantitative western blot: SNX27; type: binding; settings: Fig 3F, S2B Fig; double aDLF mutants in HEK293T, GFP trap
Description: HeLa and HEK-293T cell lines were sourced from ATCC. Authentication was from the ATCC. Cells were grown in DMEM (Sigma-Aldrich) supplemented with 10% (v/v) FCS (Sigma-Aldrich) and penicillin/streptomycin (Gibco, USA) and grown under standard conditions. FuGENE HD (Promega, USA) was used for transient transfection of DNA according to the manufacturer’s instructions. Cycloheximide was used to prevent up-regulation of protein synthesis. In this case, cycloheximide (C7698; Sigma-Aldrich) at 10 μg/ml was added to the cells 48 hours after FuGENE transfection for the indicated time points. For the generation of CRISPR-Cas9 SNX27 knockout HeLa cells, HeLa cells were transfected with pX330 plasmid coding for the gRNA against the gene of interest together with a puromycin resistance–expressing plasmid. Cells were then subjected to puromycin selection for 24 hours. The pooled population of cells was subjected to lysis and western blotting to confirm the knockout. The VPS35 knockout clonal cell line used in this study was characterized previously. […]
For western blotting, cells were lysed in PBS with 1% (v/v) Triton X-100 and protease inhibitor cocktail. The protein concentration was determined with a BCA assay kit (Thermo Fisher Scientific, USA), and equal amounts were resolved on NuPAGE 4% to 12% precast gels (Invitrogen, USA). […]

[3] = pH 7.5, 800 μM hSNX27FERM into 20 μM mSNX1 protein

Row | Kd ([1]; 50 mM HEPES pH 7.5, 200 mM NaCl, 5% glycerol, 1 mM β-ME, 800 μM hSNX27FERM titrated into 20 μM mSNX1 protein, single-site fit, mean of at least 2 experiments) [µM] | Molecule | -TΔS [1, 3] [kcal/mol] | ΔG [1, 3] [kcal/mol] | ΔH [1, 3] [kcal/mol] | SNX27 binding, in words [2]
1 | 41 | B1 | 0.24 ± 3.10 | -5.99 ± 0.02 | -6.23 ± 3.11 | –
2 | – | B2 | – | – | – | near undetectable levels
3 | – | B3 | – | -6.02 ± 0.01 | -6.93 ± 0.01 | –

From article PMC9038204, “SNX27–Retromer directly binds ESCPE-1 to transfer cargo proteins during endosomal recycling” (PLoS Biology, 2022)
